# Measurements taken from paper PMC11953334, “Substrates bind to residues lining the ring of asymmetrically engaged bacterial proteasome activator Bpa” (Nature Communications, 2025).
# Target: bacterial proteasome activator Bpa, full-length, wild-type (M. tuberculosis H37Rv) (UniProt P9WKX3)
# Assay: MST
substance,measurement,value
"heat shock repressor HspR, wild-type (natural protein)",Kd,4.3 µM
